In publication PMC7277757, “On the Electrochemical Detection of Alpha-Fetoprotein Using Aptamers: DNA Isothermal Amplification Strategies to Improve the Performance of Weak Aptamers” one finds Kd data, which are given here for 4 molecules.

Data set [1] concerns the target T1, alpha-fetoprotein (AFP) (Homo sapiens) (UniProt P02771).
T1 sequence: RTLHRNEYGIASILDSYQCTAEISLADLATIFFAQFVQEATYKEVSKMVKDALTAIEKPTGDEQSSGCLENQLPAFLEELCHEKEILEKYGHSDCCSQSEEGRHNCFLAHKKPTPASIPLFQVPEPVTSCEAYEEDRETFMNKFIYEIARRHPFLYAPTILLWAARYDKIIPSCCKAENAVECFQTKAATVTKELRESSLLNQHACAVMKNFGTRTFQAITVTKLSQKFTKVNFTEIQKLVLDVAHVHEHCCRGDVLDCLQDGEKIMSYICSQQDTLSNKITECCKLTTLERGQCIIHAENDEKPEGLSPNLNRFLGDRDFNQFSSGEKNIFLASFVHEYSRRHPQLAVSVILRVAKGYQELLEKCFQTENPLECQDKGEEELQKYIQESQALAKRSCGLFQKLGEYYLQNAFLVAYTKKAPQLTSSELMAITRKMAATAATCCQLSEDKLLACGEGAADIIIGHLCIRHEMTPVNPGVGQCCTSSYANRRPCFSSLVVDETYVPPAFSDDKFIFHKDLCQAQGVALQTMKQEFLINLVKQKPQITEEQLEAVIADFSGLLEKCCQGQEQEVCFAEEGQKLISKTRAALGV
As to the kind of experiment: magnetic bead binding assay, antiF-POD, chronoamperometry. The note with it: no amplification; 1:1 fit; 1x PBS, 25 °C, 30 min, 1300 rpm; 60 µg AFP-modified magnetic beads in 250 µL (effective AFP about 34 nM); washes 1x PBS 0.01% Tween 20; pH not stated.

For data set [2], the target named is T2, alpha-fetoprotein (AFP) (Homo sapiens, UniProt P02771 19-609).
T2 sequence: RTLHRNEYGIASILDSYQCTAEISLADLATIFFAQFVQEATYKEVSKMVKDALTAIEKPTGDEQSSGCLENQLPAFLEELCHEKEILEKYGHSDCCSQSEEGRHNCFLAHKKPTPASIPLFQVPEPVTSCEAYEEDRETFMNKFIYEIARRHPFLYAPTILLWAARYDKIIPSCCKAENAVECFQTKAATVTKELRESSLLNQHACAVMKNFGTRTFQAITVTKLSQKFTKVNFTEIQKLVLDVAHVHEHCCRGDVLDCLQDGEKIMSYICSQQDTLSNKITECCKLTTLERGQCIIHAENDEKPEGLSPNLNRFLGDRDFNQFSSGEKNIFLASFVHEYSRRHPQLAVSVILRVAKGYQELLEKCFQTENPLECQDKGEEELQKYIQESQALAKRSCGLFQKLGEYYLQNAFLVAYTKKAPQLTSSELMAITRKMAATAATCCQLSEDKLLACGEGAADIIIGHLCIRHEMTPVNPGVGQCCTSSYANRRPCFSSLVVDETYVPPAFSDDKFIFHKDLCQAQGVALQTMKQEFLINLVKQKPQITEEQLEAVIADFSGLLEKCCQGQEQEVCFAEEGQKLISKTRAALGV
As to the kind of experiment: magnetic bead binding assay, RCA amplification, antiF-POD, chronoamperometry; apparent Kd; RCA after binding; Langmuir fit (abstract prints 189 nM); 1x PBS, 25 °C, 30 min, 1300 rpm; 60 µg AFP-modified magnetic beads in 250 µL (effective AFP about 34 nM); washes 1x PBS 0.01% Tween 20; pH not stated. The note with it: protein: native.

Data set [3] concerns the target T2, alpha-fetoprotein (AFP). Description: magnetic bead binding assay, TdT amplification, SA-POD, chronoamperometry; apparent Kd; TdT elongation after binding; Langmuir fit; 1x PBS, 25 °C, 30 min, 1300 rpm; 60 µg AFP-modified magnetic beads in 250 µL (effective AFP about 34 nM); washes 1x PBS 0.01% Tween 20; pH not stated. The note with it: protein: native.
Data set [4] deals with T2, alpha-fetoprotein (AFP). As to the kind of experiment: magnetic bead binding assay, antiF-POD, chronoamperometry; no amplification; Hill n = 1.6 ± 0.4; 1x PBS, 25 °C, 30 min, 1300 rpm; 60 µg AFP-modified magnetic beads in 250 µL (effective AFP about 34 nM); washes 1x PBS 0.01% Tween 20; pH not stated. The note with it: protein: native; label: 5' FITC.

In the case of “TCAGGTGCAGTTCTCGACTCGGTCTTGATGTGGGT [AFP-S-FITC]”, the Kd in data set [1] was determined as 713 nM.

B1: AFP-S-RCA (ssDNA)
DNA: TCAGGTGCAGTTCTCGACTCGGTCTTGATGTGGGTTTTTTTTTTTAGATAGTAAGTGCAATCT
As for B1, in the data set with alpha-fetoprotein (AFP) [2], the Kd was 188 ± 33 nM.

B2: AFP-L-TdT (ssDNA)
DNA: GGCAGGAAGACAAACAAGCTTGGCGGCGGGAAGGTGTTTAAATTCCCGGGTCTGCGTGGTCTGTGGTGCTGTTTTTTT
For B2, in the data set with alpha-fetoprotein (AFP) [3], the Kd is 32 ± 11 nM.

B3: AFP-L-FITC (ssDNA)
DNA: GGCAGGAAGACAAACAAGCTTGGCGGCGGGAAGGTGTTTAAATTCCCGGGTCTGCGTGGTCTGTGGTGCTGT
In turn, B3 registered a Kd with alpha-fetoprotein (AFP) [4] of 526 ± 101 nM.
